Laboratory results as given in patent US20240409663A1 (CONCEPT TO MEDICINE BIOTECH, published 2024).
Like-named read-outs stand apart in the source and are kept apart here.

Tests used:
[1] = molecular target: T1, human GPC3 on cells (human, UniProt P51654 25-554); assay: FACS, HEPG2 cells
[2] = molecular target: T1, human GPC3 on cells; assay: FACS, GPC3-CHOK1 cells
[3] = molecular target: T1, human GPC3 on cells; assay: FACS, GPC3-CHOK1 cells; remark: listed apart in the source
[4] = molecular target: T1, human GPC3 on cells; assay: FACS, Huh-7 cells
[5] = molecular target: T1, human GPC3 on cells; assay: FACS, Hep3B cells
[6] = molecular target: T1, human GPC3 on cells; assay: FACS on GPC3-CHOK1 cells, Alexa Fluor 647 anti-human IgG, AF647-MFI
[7] = molecular target: T1, human GPC3 on cells; assay: FACS, Huh-7 cells; remark: listed apart in the source
[8] = molecular target: T1, human GPC3 on cells; assay: FACS, GPC3-CHOK1 cells; remark: listed apart in the source
[9] = molecular target: T1, human GPC3 on cells; assay: cell-based or functional assay
[10] = molecular target: T1, human GPC3 on cells; assay: FACS, Hep3B cells; remark: listed apart in the source
[11] = molecular target: T1, human GPC3 on cells; assay: FACS, HEPG2 cells; remark: listed apart in the source
[12] = molecular target: T1, human GPC3 on cells; assay: FACS, Huh-7 cells; remark: listed apart in the source
[13] = molecular target: T1, human GPC3 on cells; assay: FACS, HEPG2 cells; remark: listed apart in the source
[14] = molecular target: T1, human GPC3 on cells; assay: FACS, GPC3-CHOK1 cells; remark: listed apart in the source
[15] = molecular target: T1, human GPC3 on cells; assay: FACS, GPC3-CHOK1 cells; remark: listed apart in the source
[16] = molecular target: T1, human GPC3 on cells; assay: FACS, GPC3-CHOK1 cells; remark: listed apart in the source
[17] = molecular target: T1, human GPC3 on cells; assay: FACS, GPC3-CHOK1 cells
Method: (§1) To evaluate the antigen binding property, the humanized antibodies were analyzed for their binding to human GPC3 over-expressed CHOK1 cells, HEPG2 cells, Hep3B cells and Huh-7 cells by FACS. Briefly, GPC3-CHOK1 cells, HEPG2 cells, Hep3B cells and Huh-7 cells were firstly incubated with Fc blocking reagent at 4° C. for 15 mins. Cells were washed by FACS buffer and divided to each well with 4-fold serially diluted humanized antibodies starting at 10 μg/mL at 4° C. for 60 mins. Cells were washed by FACS buffer and fixed with 2% PFA at RT for 15 mins. […] The 16 humanized antibodies were separated into two plates.

[18] = molecular target: T2, human GPC3-his tag protein (human, UniProt P51654 25-559, limits assumed); assay: SPR Biacore 8K, mAb captured, affinity ranking
T2 construct: recombinant soluble antigen used as analyte in all Biacore runs; also called recombinant GPC3 protein; rhGPC3-His; not shown: His tag
Method: To evaluate antigen binding activity, the chimeric antibody's affinity was measured by Biacore 8K. A serial dilution of human GPC3-his tag protein was injected over captured chimeric antibody 52H5D3B8-6 #-VH+VL for 3 mins at a flow rate of 30 μl/min. The antigen was allowed to dissociate for 720 s. Among the multi detection doses, two concentrations with most close affinity to the chimeric antibody's affinity were chosen for the 16 humanized antibodies' affinity detection.

[19] = molecular target: T1, human GPC3 on cells; assay: FACS, Hep3B cells
Method: as §1

[20] = molecular target: T1, human GPC3 on cells; assay: FACS, Huh-7 cells
Method: as §1

[21] = molecular target: T1, human GPC3 on cells; assay: FACS, HEPG2 cells
Excerpt: (§2) FACS was used to evaluate the binding activity of 52H5D3B8-6 #-VH1+VL1 and 52H5D3B8-6 #-VH2+VL3 with comparison to GC33 (Chugai Pharmaceutical) and Y035 (Carsgen Therapeutics, U.S. Patent Application US20190046659) on human GPC3 over-expressed CHOK1 cells and HEPG2 cells.

[22] = molecular target: T2, human GPC3-his tag protein; assay: SPR Biacore, mAb captured on CM5, GPC3-his dilution series (full kinetics)
Method: The binding of the humanized antibodies to recombinant GPC3 protein (human GPC3-his tag) was tested by Biacore using a capture method. 52H5D3B8-6 #-V+VL, 52H5D3B8-6 #-VH1+VL1, 52H5D3B8-6 #-VH1+VL3, 52H5D3B8-6 #-V1+VL4, 52H5D3B8-6 #-VH2+VL4, 52H5D3B8-6 #-VH3+VL1, 52H5D3B8-6 #-VH3+VL3 mAbs were captured using CM5 sensor chip. A serial dilution of human GPC3-his tag protein was injected over captured antibody for 2 mins at a flow rate of […]. The antigen was allowed to dissociate for 360 s. All the experiments were carried out on a Biacore T200.

[23] = molecular target: T1, human GPC3 on cells; assay: cell-based or functional assay; remark: listed apart in the source
[24] = molecular target: T1, human GPC3 on cells; assay: FACS, GPC3-CHOK1 cells; remark: listed apart in the source
Excerpt: as §2

[25] = molecular target: T1, human GPC3 on cells; assay: FACS, HEPG2 cells; remark: listed apart in the source
Method: as §1

[26] = molecular target: T1, human GPC3 on cells; assay: cell-based or functional assay; remark: listed apart in the source

## GC33 (Chugai Pharmaceutical) (antibody)
[1]
  EC50: 0.745 nM
[2]
  EC50: 0.166 µg/mL
[3]
  EC50: 0.956 nM
[4]
  EC50: 0.147 µg/mL
[5]
  EC50: 0.375 µg/mL
[6]
  EC50 (read off the curve): 0.1 µg/mL
[7]
  EC50: 0.953 nM
[8]
  EC50: 0.122 µg/mL
[9]
  EC50 of ADCC cytotoxicity (primary NK cells, LDH), HEPG2 cells: 0.276 nM
  EC50 of ADCC cytotoxicity (primary NK cells, LDH), Huh-7 cells: 0.172 nM
  EC50 of ADCC signaling (Jurkat-hCD16a-NFAT luciferase reporter), HEPG2 cells: 0.415 nM
  EC50 of ADCC signaling (Jurkat-hCD16a-NFAT luciferase reporter), Huh-7 cells: 0.29 nM
[10]
  EC50: 0.341 µg/mL
[11]
  EC50: 1.28 nM
[12]
  EC50: 0.182 µg/mL
[13]
  EC50: 0.181 µg/mL
[14]
  EC50: 0.131 µg/mL
[15]
  EC50: 0.784 nM
[16]
  EC50: 0.993 nM

B1: 52H5D3B8-6#-VH1+VL1 (antibody, V domains shown)
VH: QVQLVQSGAEVKKPGASVKVSCKASGYTFTDYEMHWVRQAPGQGLEWMGAIHPGSGGTAYNQKFKGRVTMTRDTSTSTVYMELSSLRSEDTAVYYCARYYSYAYWGQGTLVTVSS
VL: DIVMTQTPLSLSVTPGQPASISCRSSQSLVHSNGNTYLQWYLQKPGQSPQLLIYKVSNRFSGVPDRFSGSGSGTDFTLKISRVEAEDVGVYYCFQSIHVPYTFGGGTKLEIK
notes: humanized
[17]
  EC50: 0.038 µg/mL
[18]
  Kd: 1.97 nM
  koff: 0.00112 s⁻¹
  kon: 567000 M⁻¹ s⁻¹
[19]
  EC50: 0.0626 µg/mL
[20]
  EC50: 0.0362 µg/mL
[21]
  EC50: 0.342 nM
[22]
  Kd: 2.24 nM
  koff: 0.00111 s⁻¹
  kon: 497000 M⁻¹ s⁻¹
[23]
  EC50 of ADCC cytotoxicity (primary NK cells, LDH), HEPG2 cells: 0.0845 nM
  EC50 of ADCC cytotoxicity (primary NK cells, LDH), Huh-7 cells: 0.108 nM
[24]
  EC50: 0.332 nM
[25]
  EC50: 0.0411 µg/mL
[26]
  EC50 of ADCC signaling (Jurkat-hCD16a-NFAT luciferase reporter), HEPG2 cells: 0.176 nM
  EC50 of ADCC signaling (Jurkat-hCD16a-NFAT luciferase reporter), Huh-7 cells: 0.322 nM
